Several values for one entry are separate records, joined by “and”; a condition that tells them apart may be missing. Equal entries are not always repeated.
B1: LYN (protein, UniProt P07948 2-512, looked up)
Tyrosine-protein kinase Lyn: GCIKSKGKDSLSDDGVDLKTQPVRNTERTIYVRDPTSNKQQRPVPESQLLPGQRFQTKDPEEQGDIVVALYPYDGIHPDDLSFKKGEKMKVLEEHGEWWKAKSLLTKKEGFIPSNYVAKLNTLETEEWFFKDITRKDAERQLLAPGNSAGAFLIRESETLKGSFSLSVRDFDPVHGDVIKHYKIRSLDNGGYYISPRITFPCISDMIKHYQKQADGLCRRLEKACISPKPQKPWDKDAWEIPRESIKLVKRLGAGQFGEVWMGYYNNSTKVAVKTLKPGTMSVQAFLEEANLMKTLQHDKLVRLYAVVTREEPIYIITEYMAKGSLLDFLKSDEGGKVLLPKLIDFSAQIAEGMAYIERKNYIHRDLRAANVLVSESLMCKIADFGLARVIEDNEYTAREGAKFPIKWTAPEAINFGCFTIKSDVWSFGILLYEIVTYGKIPYPGRTNADVMTALSQGYRMPRVENCPDELYDIMKMCWKEKAEERPTFDYLQSVLDDFYTATEGQYQQQP
B2: ICAM1 (protein, UniProt P05362 28-532, looked up)
Intercellular adhesion …: QTSVSPSKVILPRGGSVLVTCSTSCDQPKLLGIETPLPKKELLLPGNNRKVYELSNVQEDSQPMCYSNCPDGQSTAKTFLTVYWTPERVELAPLPSWQPVGKNLTLRCQVEGGAPRANLTVVLLRGEKELKREPAVGEPAEVTTTVLVRRDHHGANFSCRTELDLRPQGLELFENTSAPYQLQTFVLPATPPQLVSPRVLEVDTQGTVVCSLDGLFPVSEAQVHLALGDQRLNPTVTYGNDSFSAKASVSVTAEDEGTQRLTCAVILGNQSQETLQTVTIYSFPAPNVILTKPEVSEGTEVTVKCEAHPRAKVTLNGVPAQPLGPRAQLLLKATPEDNGRSFSCSATLEVAGQLIHKNQTRELRVLYGPRLDERDCPGNWTWPENSQQTPMCQAWGNPLPELKCLKDGTFPLPIGESVTVTRDLEGTYLCRARSTQGEVTRKVTVNVLSPRYEIVIITVVAAAVIMGTAGLSTYLYNRQRKIKKYRLQQAQKGTPMKPNTQATPP
B3: KIM1 (protein, UniProt Q96D42 21-364, looked up)
Hepatitis A virus cellular …: SVKVGGEAGPSVTLPCHYSGAVTSMCWNRGSCSLFTCQNGIVWTNGTHVTYRKDTRYKLLGDLSRRDVSLTIENTAVSDSGVYCCRVEHRGWFNDMKITVSLEIVPPKVTTTPIVTTVPTVTTVRTSTTVPTTTTVPMTTVPTTTVPTTMSIPTTTTVLTTMTVSTTTSVPTTTSIPTTTSVPVTTTVSTFVPPMPLPRQNHEPVATSPSSPQPAETHPTTLQGAIRREPTSSPLYSYTTDGNDTVTESSDGLWNNNQTQLFLEHSLLTANTTKGIYAGVCISVLVLLALLGVIIAKKYFFKKEVQQLSVSFSSLQIKALQNAVEKEVQAEDNIYIENSLYATD
B4: ARHGAP1 (protein, UniProt Q07960 1-439, looked up)
Rho GTPase-activating protein …: MDPLSELQDDLTLDDTSEALNQLKLASIDEKNWPSDEMPDFPKSDDSKSSSPELVTHLKWDDPYYDIARHQIVEVAGDDKYGRKIIVFSACRMPPSHQLDHSKLLGYLKHTLDQYVESDYTLLYLHHGLTSDNKPSLSWLRDAYREFDRKYKKNIKALYIVHPTMFIKTLLILFKPLISFKFGQKIFYVNYLSELSEHVKLEQLGIPRQVLKYDDFLKSTQKSPATAPKPMPPRPPLPNQQFGVSLQHLQEKNPEQEPIPIVLRETVAYLQAHALTTEGIFRRSANTQVVREVQQKYNMGLPVDFDQYNELHLPAVILKTFLRELPEPLLTFDLYPHVVGFLNIDESQRVPATLQVLQTLPEENYQVLRFLTAFLVQISAHSDQNKMTNTNLAVVFGPNLLWAKDAAITLKAINPINTFTKFLLDHQGELFPSPDPSGL
B5: CLM-1 (protein, UniProt Q8TDQ1 20-290, looked up)
CMRF35-like molecule 1: TQITGPTTVNGLERGSLTVQCVYRSGWETYLKWWCRGAIWRDCKILVKTSGSEQEVKRDRVSIKDNQKNRTFTVTMEDLMKTDADTYWCGIEKTGNDLGVTVQVTIDPAPVTQEETSSSPTLTGHHLDNRHKLLKLSVLLPLIFTILLLLLVAASLLAWRMMKYQQKAAGMSPEQVLQPLEGDLCYADLTLQLAGTSPQKATTKLSSAQVDQVEVEYVTMASLPKEDISYASLTLGAEDQEPTYCNMGHLSSHLPGRGPEEPTEYSTISRP
B6: APBB1IP (protein, UniProt Q7Z5R6 1-666, looked up)
Amyloid beta A4 precursor …: MGESSEDIDQMFSTLLGEMDLLTQSLGVDTLPPPDPNPPRAEFNYSVGFKDLNESLNALEDQDLDALMADLVADISEAEQRTIQAQKESLQNQHHSASLQASIFSGAASLGYGTNVAATGISQYEDDLPPPPADPVLDLPLPPPPPEPLSQEEEEAQAKADKIKLALEKLKEAKVKKLVVKVHMNDNSTKSLMVDERQLARDVLDNLFEKTHCDCNVDWCLYEIYPELQIERFFEDHENVVEVLSDWTRDTENKILFLEKEEKYAVFKNPQNFYLDNRGKKESKETNEKMNAKNKESLLEESFCGTSIIVPELEGALYLKEDGKKSWKRRYFLLRASGIYYVPKGKTKTSRDLACFIQFENVNIYYGTQHKMKYKAPTDYCFVLKHPQIQKESQYIKYLCCDDTRTLNQWVMGIRIAKYGKTLYDNYQRAVAKAGLASRWTNLGTVNAAAPAQPSTGPKTGTTQPNGQIPQATHSVSAVLQEAQRHAETSKDKKPALGNHHDPAVPRAPHAPKSSLPPPPPVRRSSDTSGSPATPLKAKGTGGGGLPAPPDDFLPPPPPPPPLDDPELPPPPPDFMEPPPDFVPPPPPSYAGIAGSELPPPPPPPPAPAPAPVPDSARPPPAVAKRPPVPPKRQENPGHPGGAGGGEQDFMSDLMKALQKKRGNVS
B7: PRKCQ (protein, UniProt Q04759 1-706, looked up)
Protein kinase C theta type: MSPFLRIGLSNFDCGSCQSCQGEAVNPYCAVLVKEYVESENGQMYIQKKPTMYPPWDSTFDAHINKGRVMQIIVKGKNVDLISETTVELYSLAERCRKNNGKTEIWLELKPQGRMLMNARYFLEMSDTKDMNEFETEGFFALHQRRGAIKQAKVHHVKCHEFTATFFPQPTFCSVCHEFVWGLNKQGYQCRQCNAAIHKKCIDKVIAKCTGSAINSRETMFHKERFKIDMPHRFKVYNYKSPTFCEHCGTLLWGLARQGLKCDACGMNVHHRCQTKVANLCGINQKLMAEALAMIESTQQARCLRDTEQIFREGPVEIGLPCSIKNEARPPCLPTPGKREPQGISWESPLDEVDKMCHLPEPELNKERPSLQIKLKIEDFILHKMLGKGSFGKVFLAEFKKTNQFFAIKALKKDVVLMDDDVECTMVEKRVLSLAWEHPFLTHMFCTFQTKENLFFVMEYLNGGDLMYHIQSCHKFDLSRATFYAAEIILGLQFLHSKGIVYRDLKLDNILLDKDGHIKIADFGMCKENMLGDAKTNTFCGTPDYIAPEILLGQKYNHSVDWWSFGVLLYEMLIGQSPFHGQDEEELFHSIRMDNPFYPRWLEKEAKDLLVKLFVREPEKRLGVRGDIRQHPLFREINWEELERKEIDPPFRPKVKSPFDCSNFDKEFLNEKPRLSFADRALINSMDQNMFRNFSFMNPGMERLIS
B8: EPHB4 (protein, UniProt P54760 16-987, looked up)
Ephrin type-B receptor 4: LEETLLNTKLETADLKWVTFPQVDGQWEELSGLDEEQHSVRTYEVCDVQRAPGQAHWLRTGWVPRRGAVHVYATLRFTMLECLSLPRAGRSCKETFTVFYYESDADTATALTPAWMENPYIKVDTVAAEHLTRKRPGAEATGKVNVKTLRLGPLSKAGFYLAFQDQGACMALLSLHLFYKKCAQLTVNLTRFPETVPRELVVPVAGSCVVDAVPAPGPSPSLYCREDGQWAEQPVTGCSCAPGFEAAEGNTKCRACAQGTFKPLSGEGSCQPCPANSHSNTIGSAVCQCRVGYFRARTDPRGAPCTTPPSAPRSVVSRLNGSSLHLEWSAPLESGGREDLTYALRCRECRPGGSCAPCGGDLTFDPGPRDLVEPWVVVRGLRPDFTYTFEVTALNGVSSLATGPVPFEPVNVTTDREVPPAVSDIRVTRSSPSSLSLAWAVPRAPSGAVLDYEVKYHEKGAEGPSSVRFLKTSENRAELRGLKRGASYLVQVRARSEAGYGPFGQEHHSQTQLDESEGWREQLALIAGTAVVGVVLVLVVIVVAVLCLRKQSNGREAEYSDKHGQYLIGHGTKVYIDPFTYEDPNEAVREFAKEIDVSYVKIEEVIGAGEFGEVCRGRLKAPGKKESCVAIKTLKGGYTERQRREFLSEASIMGQFEHPNIIRLEGVVTNSMPVMILTEFMENGALDSFLRLNDGQFTVIQLVGMLRGIASGMRYLAEMSYVHRDLAARNILVNSNLVCKVSDFGLSRFLEENSSDPTYTSSLGGKIPIRWTAPEAIAFRKFTSASDAWSYGIVMWEVMSFGERPYWDMSNQDVINAIEQDYRLPPPPDCPTSLHQLMLDCWQKDRNARPRFPQVVSALDKMIRNPASLKIVARENGGASHPLLDQRQPHYSAFGSVGEWLRAIKMGRYEESFAAAGFGSFELVSQISAEDLLRIGVTLAGHQKKILASVQHMKSQAKPGTPGGTGGPAPQY
B9: TNFRSF6B (protein, UniProt O95407 30-300, looked up)
Tumor necrosis factor …: VAETPTYPWRDAETGERLVCAQCPPGTFVQRPCRRDSPTTCGPCPPRHYTQFWNYLERCRYCNVLCGEREEEARACHATHNRACRCRTGFFAHAGFCLEHASCPPGAGVIAPGTPSQNTQCQPCPPGTFSASSSSSEQCQPHRNCTALGLALNVPGSSSHDTLCTSCTGFPLSTRVPGAEECERAVIDFVAFQDISIKRLQRLLQALEAPEGWGPTPRAGRAALQLKLRRRLTELLGAQDGALLVRLLQALRVARMPGLERSVRERFLPVH
B10: DAB2 (protein, UniProt P98082 2-770, looked up)
Disabled homolog 2: SNEVETSATNGQPDQQAAPKAPSKKEKKKGPEKTDEYLLARFKGDGVKYKAKLIGIDDVPDARGDKMSQDSMMKLKGMAAAGRSQGQHKQRIWVNISLSGIKIIDEKTGVIEHEHPVNKISFIARDVTDNRAFGYVCGGEGQHQFFAIKTGQQAEPLVVDLKDLFQVIYNVKKKEEEKKKIEEASKAVENGSEALMILDDQTNKLKSGVDQMDLFGDMSTPPDLNSPTESKDILLVDLNSEIDTNQNSLRENPFLTNGITSCSLPRPTPQASFLPENAFSANLNFFPTPNPDPFRDDPFTQPDQSTPSSFDSLKSPDQKKENSSSSSTPLSNGPLNGDVDYFGQQFDQISNRTGKQEAQAGPWPFSSSQTQPAVRTQNGVSEREQNGFSVKSSPNPFVGSPPKGLSIQNGVKQDLESSVQSSPHDSIAIIPPPQSTKPGRGRRTAKSSANDLLASDIFAPPVSEPSGQASPTGQPTALQPNPLDLFKTSAPAPVGPLVGLGGVTVTLPQAGPWNTASLVFNQSPSMAPGAMMGGQPSGFSQPVIFGTSPAVSGWNQPSPFAASTPPPVPVVWGPSASVAPNAWSTTSPLGNPFQSNIFPAPAVSTQPPSMHSSLLVTPPQPPPRAGPPKDISSDAFTALDPLGDKEIKDVKEMFKDFQLRQPPAVPARKGEQTSSGTLSAFASYFNSKVGIPQENADHDDFDANQLLNKINEPPKPAPRQVSLPVTKSTDNAFENPFFKDSFGSSQASVASSQPVSSEMYRDPFGNPFA

Tested on: plasma proteins
Experiment: Plasma proteins modulated between baseline and day 28 in responders (CR, VGPR, PR; n = 19), Example 6 (Table 13)
Format: in vivo, human
Conditions: plasma protein (OLINK NPX); responders (CR, VGPR, PR; n = 19); itacitinib 200 mg or 300 mg QD with corticosteroids; day 28 vs baseline
Method in brief: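 Plasma at baseline/screening and day 28 profiled for >1000 proteins by OLINK proximity extension assay, reported as NPX (log2). Steroid-naive and steroid-refractory patients pooled. Paired and unpaired t tests, ANOVA and Pearson correlation applied; significance at P<0.05.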

Molecule	Fold Change, Decreased Expression from Baseline to Day 28	Fold Change, Increased Expression from Baseline to Day 28
B1	−1.2337	
B2	−1.354	
B3		1.7741 and 1.757
B4	−1.6039	
B5	−1.3921	
B6	−1.4021	
B7	−1.3251	
B8	−1.2339	
B9	−1.3504	
B10	−1.2548	

Source: patent US12099068B2, “Biomarkers for graft-versus-host disease” (Incyte Corporation, priority 2018, dated 2024)
